# B1: irisin: secreted cleaved form of FNDC5; recombinant human/mouse irisin with C-terminal his tag produced in HEK293 cells (protein)
# chain: DSPSAPVNVTVRHLKANSAVVSWDVLEDEVVIGFAISQQKKDVRMLRFIQEVNTTTRSCALWDLEEDTEYIVHVQAISIQGQSPASEPVLFKTPREAEKMASKNKDEVTMKE
# modifications: left off: small tags and cut ends
# notes: secreted cleaved form of FNDC5; recombinant human/mouse irisin with C-terminal his tag produced in HEK293 cells
# Tested on: 3T3 F442A adipose cells
# Experiment: Integrin-like signaling in adipose cells, immunoblot
# Format: cell-based, murine
# Conditions: irisin 10 minutes
# Experimental: Differentiated 3T3 F442A adipose cells were incubated in serum free medium for 4 hours followed by treatment of indicated concentrations of irisin for 10 minutes. Cells were lysed to detect the indicated protein level using immunoblot analysis.
# Certain materials and methods were used to generate the results described herein. For example, the data shown in FIG. 1A resulted from MLO-Y4 (an osteocyte-like cell line) cells treated with the indicated concentration of irisin and hydrogen peroxide for 4 hours. Cells were stained with Hoechst 33342 (ThermoFisher Scientific, catalog number H3570) and Eth-D1 (ThermoFisher Scientific, catalog number E1169) and analyzed to determine the percentage of cell death using ImageJ. […] Co-precipitated irisin was analyzed by immunoblot analysis against flag tag (Sigma Aldrich, catalog number A8592). The data shown in FIGS. 5A and 5B were generated from MLO-Y4 cells treated and analyzed as in the experiments used to generate the data shown in FIG. 2D, except that pre-treatment of 100 nM RGDS (FIG. 5A) or echistatin (R & D Systems Inc., catalog number 3202/100U) (FIG. 5B) for 10 minutes was performed before irisin treatment. […] Sclerostin mRNA level was analyzed by qPCR (FIG. 7A). […] Epididymal fats were collected, RNAs were extracted from the tissues, and mRNA levels of the indicated genes were analyzed by qPCR. […]
molecule,measurement,value
B1,irisin dose at which phosphorylation of FAK and CREB were observed,30 pM

# From US20210063414A1, “METHODS FOR PREVENTING AND/OR TREATING BONE LOSS CONDITIONS BY MODULATING IRISIN” (Dana-Farber Cancer Institute, Inc., priority 2018, published 2021)
